# Paper PMC2605266 (2008)
# B1: Munc18c, N-terminal His6-fusion protein (protein)
# chain: MAPPVSERGLKSVVWRKIKTAVFDDCRKEGEWKIMLLDEFTTKLLSSCCKMTDLLEEGITVIENIYKNREPVRQMKALYFISPTPKSVDCFLRDFGSKSEKKYKAAYIYFTDFCPDSLFNKIKASCSKSIRRCKEINISFIPQESQVYTLDVPDAFYYCYSPDPSNASRKEVVMEAMAEQIVTVCATLDENPGVRYKSKPLDNASKLAQLVEKKLEDYYKIDEKGLIKGKTQSQLLIIDRGFDPVSTVLHELTFQAMAYDLLPIENDTYKYKTDGKEKEAVLEEDDDLWVRVRHRHIAVVLEEIPKLMKEISSTKKATEGKTSLSALTQLMKKMPHFRKQISKQVVHLNLAEDCMNKFKLNIEKLCKTEQDLALGTDAEGQRVKDSMLVLLPVLLNKNHDNCDKIRAVLLYIFGINGTTEENLDRLIHNVKIEDDSDMIRNWSHLGVPIVPPSQQAKPLRKDRSAEETFQLSRWTPFIKDIMEDAIDNRLDSKEWPYCSRCPAVWNGSGAVSARQKPRTNYLELDRKNGSRLIIFVIGGITYSEMRCAYEVSQAHKSCEVIIGSTHILTPRKLLDDIKMLNKSKDKVSFKDE
# Experiments:
# [1] = biological target: GST fused to the cytosolic domain of VAMP2 (Rattus norvegicus (Rat), UniProt P63045); test: GST pull-down, immunoblot
# [2] = biological target: GST-VAMP2 harbouring only the SNARE motif (VAMP2 lacking the first 30 amino acids) (Rattus norvegicus (Rat), UniProt P63045); test: GST pull-down, immunoblot
# Sequence of GST-VAMP2 harbouring only the SNARE motif (VAMP2 lacking the first 30 amino acids) (P63045 31-92): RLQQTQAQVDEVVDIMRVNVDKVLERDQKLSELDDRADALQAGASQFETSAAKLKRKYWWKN
# Sequence of GST fused to the cytosolic domain of VAMP2 (P63045 1-92): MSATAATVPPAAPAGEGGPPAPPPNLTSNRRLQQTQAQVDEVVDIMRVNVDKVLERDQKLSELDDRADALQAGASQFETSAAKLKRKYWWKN
binder,measurement,setting,value
B1,binding result,[1],binds
same,binding result,[2],binds
